{"source": "patent US20250145733A1", "about": "(University of California, published 2025)", "binders": {"B1": {"name": "FYIA_germ_SY Fab (Fab, part only; not given: light variable domain, not tied by name, V domains shown, part only)", "VH": "EVQLVESGGGLVQPGGSLRLSCAASGFTFSAYAMHWVRQAPGKGLEWVAVISYEGYNAYYADSVKGRFTISRDNSKNTLYLQMNSLRAEDTAVYYCAKEGDYSRWAYDLWGRGTLVTVSS"}, "B2": {"name": "FYIA_germ Fab (Fab, V domains shown)", "VH": "B1 VH with A31S, E54D, Y56S, A58K, Y102S, A106S", "VL": "QSALTQPASVSGSPGQSITISCTGTSSDVGGYNYVSWYQQHPGKAPKLMIYDVTNRPSGVSNRFSGSKSGNTASLTISGLQAEDEADYYCSSYTIASTLVVFGGGTKLTVL", "notes": "Tested as monovalent Fab"}, "B3": {"name": "FYIA_germopt Fab (Fab, V domains shown)", "VH": "B1 VH with L109Y", "VL": "B2 VL with R56Y, I95V, S97T", "notes": "Tested as monovalent Fab; also called SYLY"}, "B4": {"name": "SYLY-based bispecific ALPPL2×CD3 DSDbody (bispecific antibody)", "chain 1": "EVQLVESGGGLVQPGGSLRLSCAASGFTFNTYAMNWVRQAPGKGLEWVGRIRSKYNNYATYYADSVKDRFTISRDDSKNSLYLQMNSLTACDTAVYYCVRHGNFGNSYVSWFAYWGQGTLVTVSSGGGGSQSALTQPASVSGSPGQSITISCTGTSSDVGGYNYVSWYQQHPGKAPKLMIYDVTYRPSGVSNRFSGSKSGNTASLTISGLQAEDEADYYCSSYTVATTLVVFGGGTKLTVLASTKGPSVFPLAPSSKSTSGGTAALGCLVKDYFPEPVTVSWNSGALTSGVHTFPAVLQSSGLYSLSSVVTVPSSSLGTQTYICNVNHKPSNTKVDKKVEPKSCHHHHHH", "chain 2": "EVQLVESGGGLVQPGGSLRLSCAASGFTFSAYAMHWVRQAPGKGLEWVAVISYEGYNAYYADSVKGRFTISRDNSKNTLYLQMNSLTACDTAVYYCAKEGDYSRWAYDYWGRGTLVTVSSGGGGSDIQMTQSPSSLSASVGDRVTITCRSSTGAVTTSNYANWVQQKPGKAPKGLIGGTNKRAPGVPSRFSGSLIGDKATLTISSLQPEDFATYYCALWYSNLWVFGQGTKVEIKRTVAAPSVFIFPPSDEQLKSGTASVVCLLNNFYPREAKVQWKVDNALQSGNSQESVTEQDSKDSTYSLSSTLTLSKADYEKHKVYACEVTHQGLSSPVTKSFNRGEC", "notes": "Dually stabilized diabody: inter-chain disulfide link and CH1/CL pairing; Anti-CD3 arm is humanized SP34 (hSP34k2); also called SYLY×CD3 DSDbody; SYLY DSDbody"}}, "key": {"[1]": {"target": "human ALPPL2 on tumor cells (M28, SKOV3, AsPC1) (human) (UniProt P10696)", "sequence (P10696 20-503)": "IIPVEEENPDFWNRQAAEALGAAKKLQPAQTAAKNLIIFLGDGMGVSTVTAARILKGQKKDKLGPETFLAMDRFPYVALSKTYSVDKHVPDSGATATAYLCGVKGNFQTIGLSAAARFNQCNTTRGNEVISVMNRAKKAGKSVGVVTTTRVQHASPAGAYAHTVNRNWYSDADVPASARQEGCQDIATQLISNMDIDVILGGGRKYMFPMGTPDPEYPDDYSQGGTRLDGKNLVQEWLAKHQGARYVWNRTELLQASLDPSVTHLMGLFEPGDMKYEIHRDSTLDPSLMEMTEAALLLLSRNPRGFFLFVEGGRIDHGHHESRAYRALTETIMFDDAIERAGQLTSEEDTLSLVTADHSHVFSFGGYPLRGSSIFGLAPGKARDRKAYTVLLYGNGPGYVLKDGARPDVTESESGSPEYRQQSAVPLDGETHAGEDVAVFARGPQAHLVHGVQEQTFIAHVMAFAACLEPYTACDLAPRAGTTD", "assay": "apparent KD, flow cytometry, Fab on living M28 cells"}, "[2]": {"target": "T1, human ALPI on HEK293 cells (human, UniProt P09923 20-503)", "T1 construct": "whole, on cells; also called HEK293-ALPI cells", "T1 sequence (looked up)": "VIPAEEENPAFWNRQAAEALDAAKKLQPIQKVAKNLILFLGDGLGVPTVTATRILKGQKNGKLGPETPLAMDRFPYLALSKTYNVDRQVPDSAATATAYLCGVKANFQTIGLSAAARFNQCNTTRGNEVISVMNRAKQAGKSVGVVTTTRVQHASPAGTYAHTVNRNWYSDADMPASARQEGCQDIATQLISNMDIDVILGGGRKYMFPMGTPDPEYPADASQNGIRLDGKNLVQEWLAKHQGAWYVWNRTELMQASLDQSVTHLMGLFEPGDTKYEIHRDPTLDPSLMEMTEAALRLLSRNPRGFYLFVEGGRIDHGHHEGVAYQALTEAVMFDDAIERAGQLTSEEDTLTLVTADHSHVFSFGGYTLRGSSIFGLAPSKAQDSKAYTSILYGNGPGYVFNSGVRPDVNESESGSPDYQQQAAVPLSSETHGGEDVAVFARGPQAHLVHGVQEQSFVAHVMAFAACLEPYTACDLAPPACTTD", "assay": "flow cytometry on HEK293 cells stably transfected with human ALPI, 1 h at RT", "procedure": "FIG. 3. Binding of FYIA, FYIA_germ, and FYIA_germopt Fabs to HEK293 cells stably transfected with human ALPI. HEK293-ALPI cells were incubated with Fabs for 1 h at RT and binding was analyzed by flow cytometry. No detectable binding was found. An ALPI-binding Fab, M25AD, was included in the study as a positive control."}, "human ALPPL2-Fc [3]": {"target": "T2, human ALPPL2-Fc (human, UniProt P10696 20-503)", "T2 construct": "also called ALPG; not shown: Fc part not described", "T2 sequence (P10696 20-503)": "as the sequence (P10696 20-503) above", "assay": "biolayer interferometry, tips loaded with Fab, 5 nM human ALPPL2-Fc as analyte", "procedure": "FIG. 1. Biolayer interferometry (BLI) measurements of the affinity of FYIA, FYIA_germ, FYIA_germ_6-6, and FYIA_germopt (aka SYLY) Fabs for human ALPPL2. Tips were loaded with Fabs, followed by an association step with 5 nM human ALPPL2-Fc then a dissociation step."}, "[4]": {"target": "T3, human ALPPL2 on tumor cells (M28, SKOV3, AsPC1) (human, UniProt P10696 20-503)", "T3 construct": "whole, on cells; also called ALPPL2 expressing tumor cells; M28 cells", "T3 sequence (P10696 20-503)": "as the sequence (P10696 20-503) above", "assay": "apparent KD, flow cytometry, Fab on living M28 cells", "procedure": "(§1) FIG. 2. Binding of FYIA, FYIA_germ, and FYIA_germopt Fabs to living M28 cells. M28 cells were incubated with Fabs for 1 h at RT and binding was analyzed by flow cytometry.\nFIG. 4. Additional Fabs (FYIA_germ_SY and FYIA_germ_6-6) were also studied along with FYIA, FYIA_germ, and FYIA_germopt Fabs for binding to living M28 cells. M28 cells were incubated with Fabs for 1 h at RT and binding was analyzed by flow cytometry."}, "[5]": {"target": "T3, human ALPPL2 on tumor cells (M28, …)", "assay": "cell binding study, monovalent Fab on M28 cells, flow cytometry", "procedure": "as §1"}, "human CD3 epsilon [6]": {"target": "T4, human CD3 epsilon (human, UniProt P07766 23-126)", "T4 sequence (P07766 23-126 limits assumed)": "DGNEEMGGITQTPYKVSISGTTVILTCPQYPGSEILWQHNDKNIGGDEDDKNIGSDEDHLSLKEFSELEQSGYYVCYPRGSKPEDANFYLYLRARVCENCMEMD", "assay": "BLI; tips loaded with human CD3 epsilon, association with 100 nM SYLYxCD3 DSDbody, then dissociation", "procedure": "(§2) FIG. 13. Binding of SYLY×CD3 DSDbody to human and cynomolgus monkey CD3 epsilon measured by biolayer interferometry. Tips were loaded with either human or cynomolgus monkey CD3 epsilon, followed by an association step with 100 nM SYLY×CD3 DSDbody and then a dissociation step.\n(§3) The DSDbody was also evaluated by biolayer interferometry for cross-species binding to both human and cynomolgus monkey CD3 epsilon chains."}, "human ALPPL2-Fc [7]": {"target": "T2, human ALPPL2-Fc", "assay": "biolayer interferometry, tips loaded with human ALPPL2-Fc, 100 nM DSDbody as analyte", "procedure": "(§4) FIG. 12. Binding of SYLY×CD3 DSDbody to human ALPP2 and ALPI measured by biolayer interferometry. Tips were loaded with either human ALPPL2-Fc or human ALPI-Fc, followed by an association step with 100 nM SYLY×CD3 DSDbody and then a dissociation step. Calculated affinites are shown in the graph. ND: not determined.\nas §3"}, "human CD3 epsilon [8]": {"target": "T4, human CD3 epsilon", "assay": "biolayer interferometry, tips loaded with human CD3 epsilon, 100 nM DSDbody as analyte", "procedure": "as §2, §3"}, "human ALPPL2-Fc [9]": {"target": "T2, human ALPPL2-Fc", "assay": "BLI; tips loaded with human ALPPL2-Fc, association with 100 nM SYLYxCD3 DSDbody, then dissociation", "procedure": "as §4, §3"}, "[10]": {"target": "T3, human ALPPL2 on tumor cells (M28, …)", "assay": "flow cytometry on AsPC1 cells, anti-hexahistidine detection, curve fit of MFI; AsPC1 pancreatic cancer cells, flow cytometry", "procedure": "The bispecific (ALPPL2×CD3) SYLY DSDBody was incubated with AsPC1 cells at room temperature for 1 h, washed and further incubated with anti-tag (hexahistidine (SEQ ID NO: 102)) antibodies for detection by flow cytometry. […] See, FIG. 24."}, "[11]": {"target": "T5, cynomolgus monkey CD3 epsilon (cynomolgus monkey, UniProt Q95LI5 22-117)", "T5 sequence (looked up)": "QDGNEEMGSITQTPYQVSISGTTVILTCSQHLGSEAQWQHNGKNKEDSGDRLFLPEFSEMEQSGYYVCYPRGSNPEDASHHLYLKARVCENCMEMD", "assay": "BLI; tips loaded with cynomolgus monkey CD3 epsilon, association with 100 nM SYLYxCD3 DSDbody, then dissociation", "procedure": "as §2, §3"}, "[12]": {"target": "T3, human ALPPL2 on tumor cells (M28, …)", "assay": "apparent KD, flow cytometry on living SKOV3 cells", "procedure": "FIG. 16. Binding of the SYLY-based bispecific (DSDbody) to living SKOV3 cells. SKOV3 cells were incubated with Fabs for 1 h at RT and binding was analyzed by flow cytometry. […] There is no binding by the control bispecific YSC10×CD3 DSDbody that is built on a non-binding isotype control antibody YSC10.\nIn addition to mesothelioma cells, binding of the SYLY-based bispecific ALPPL2×CD3 DSDbody was also studied on the ovarian cancer cell line SKOV3. […] No binding was detected by the control bispecific YSC10×CD3 that is built on a non-binding isotype control antibody YSC10. For comparison, a reference DSDbody constructed from the parental FYIA was also studied on SKOV3 cells using flow cytometry."}, "[13]": {"target": "T3, human ALPPL2 on tumor cells (M28, …)", "assay": "apparent KD, flow cytometry on living M28 cells; M28 mesothelioma cells, flow cytometry"}, "human ALPI-Fc": {"target": "T6, human ALPI-Fc (human, UniProt P09923 20-503)", "T6 construct": "not shown: Fc part not described", "T6 sequence (looked up)": "T1 sequence (looked up)", "assay": "BLI; tips loaded with human ALPI-Fc, association with 100 nM SYLYxCD3 DSDbody, then dissociation", "procedure": "as §4, §3"}, "[14]": {"target": "T3, human ALPPL2 on tumor cells (M28, …)", "assay": "cell-based or functional assay"}, "ALPP on HEK293 cells": {"target": "ALPP on HEK293 cells (UniProt P05187 23-506, limits assumed)", "sequence (P05187 23-506 limits assumed)": "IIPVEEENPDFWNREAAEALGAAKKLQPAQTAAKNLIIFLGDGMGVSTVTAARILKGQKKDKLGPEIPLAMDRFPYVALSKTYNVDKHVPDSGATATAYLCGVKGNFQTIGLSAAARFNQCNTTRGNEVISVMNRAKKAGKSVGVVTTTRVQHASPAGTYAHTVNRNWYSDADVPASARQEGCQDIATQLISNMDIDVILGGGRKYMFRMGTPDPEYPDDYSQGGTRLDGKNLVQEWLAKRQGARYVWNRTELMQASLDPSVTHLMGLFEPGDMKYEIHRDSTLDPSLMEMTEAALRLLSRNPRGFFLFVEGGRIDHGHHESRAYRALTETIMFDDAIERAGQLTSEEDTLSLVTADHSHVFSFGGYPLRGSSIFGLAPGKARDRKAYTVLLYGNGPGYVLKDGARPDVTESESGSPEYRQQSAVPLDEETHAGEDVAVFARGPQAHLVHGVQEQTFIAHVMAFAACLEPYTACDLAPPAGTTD", "assay": "cell-based or functional assay"}}, "note": "Changes are numbered by the printed parent chain."}
{"binder": "B1", "values": [{"measurement": "Kd", "setting": "[1]", "value": 1.27, "unit": "nM"}]}
{"binder": "B2", "values": [{"measurement": "binding result", "setting": "[2]", "value": "no binding (tested: 10000 nM)"}, {"measurement": "Kd", "setting": "human ALPPL2-Fc [3]", "value": 13, "unit": "nM"}, {"measurement": "Kd", "setting": "[4]", "value": 69.4, "unit": "nM"}]}
{"binder": "B3", "values": [{"measurement": "binding result", "setting": "[2]", "value": "no binding (tested: 10000 nM)"}, {"measurement": "Kd", "setting": "human ALPPL2-Fc [3]", "value": 0.19, "unit": "nM"}, {"measurement": "Kd", "setting": "[4]", "value": 0.967, "unit": "nM"}, {"measurement": "fold improvement over the parental FYIA", "setting": "[5]", "value": "> 30", "unit": "fold"}]}
{"binder": "B4", "values": [{"measurement": "Kd", "setting": "human CD3 epsilon [6]", "value": 25, "unit": "nM"}, {"measurement": "Kd", "setting": "human ALPPL2-Fc [7]", "value": "~0.2", "unit": "nM"}, {"measurement": "Kd", "setting": "human CD3 epsilon [8]", "value": 20, "unit": "nM"}, {"measurement": "Kd", "setting": "human ALPPL2-Fc [9]", "value": 0.2, "unit": "nM"}, {"measurement": "Kd", "setting": "[10]", "value": 4.35, "unit": "nM"}, {"measurement": "Kd", "setting": "[11]", "value": 18, "unit": "nM"}, {"measurement": "Kd", "setting": "[12]", "value": 0.19, "unit": "nM"}, {"measurement": "Kd", "setting": "[13]", "value": 2.4, "unit": "nM"}, {"measurement": "binding result", "setting": "human ALPI-Fc", "value": "no binding (tested: 100 nM)"}, {"measurement": "EC50 of killing of SKOV3 cells with human PBMC (E:T 10:1, 96h, Calcein AM)", "setting": "[14]", "value": 0.0003, "unit": "nM"}, {"measurement": "EC50 of killing of HEK293-ALPP cells with human PBMC (E:T 10:1, 72h, Calcein AM)", "setting": "ALPP on HEK293 cells", "value": 0.0085, "unit": "nM"}]}
